Measured values as given in patent US20240287188A1 (KUMHO HT, published 2024).
Residue numbers refer to the chain shown, from its start.

B1: chimeric anti-ICAM-1 antibody SI9 (mouse SI9 variable regions, human IgG4/kappa constant regions) (antibody)
heavy: QVQLQQSGAELVRPGVSVKISCKGSGYTFTDYALHWVKQSHAKSLEWIGVISTYSGNTDYNQKFRGKATMTVDKSSTTAYLELARLTSEDSAIHYCARSLYFGSSGFDYWGQGTALTVSS
light: DVVLTQTPLSLPVNLGDQASISCRSSQTLVYRNGNTYLHWYLQKAGQSPKLLIYKVSNRFSGVPDRFSGSGSGTDFTLKISRVEAEDLGVYFCSQNTHFPYTFGGGTKIKR
notes: the hinge lies in the heavy chain; also called chimeric antibody SI9; SI9 Chimeric; not shown: human IgG4 heavy chain constant region, GenBank AIC59040.1 (printed), hinge 'CPSCP' modified to 'CPPCP' (position not pr); human kappa light chain constant region, GenBank AAA58989.1 (printed)
B2: humanized anti-ICAM-1 antibody H17L4 (VH17 + VL4), human IgG4/kappa (antibody, V domains shown)
VH: QVQLVQSGAEVKKPGASVKISCKGSGYTFTDYALHWVRQAPGQRLEWMGVISTYSGNTDYNQKFRGRATITVDTSASTAYMELSSLRSEDTAVYYCARSLYFGSSGFDYWGQGTALTVSS
VL: DVVLTQTPLSSPVTLGQPASISCRSSQTLVYRNGNTYLHWYQQRPGQPPRLLIYKVSNRFSGVPDRFSGSGAGTDFTLKISRVEAEDVGVYFCSQNTHFPYTFGGGTKLEIKT
notes: The Arg at the VL/CL junction is in neither entry; also called DNP007; DNP007 antibody (H17L4 antibody)
B3: humanized anti-ICAM-1 antibody H17L1 (VH17 + VL1), human IgG4/kappa (antibody, V domains shown)
VH: B2 VH
VL: B2 VL with T7S, S11L, P48S, A72S
B4: humanized anti-ICAM-1 antibody H17L3 (VH17 + VL3), human IgG4/kappa (antibody, V domains shown)
VH: B2 VH
VL: B2 VL with Q42L, P45A
notes: The Arg at the VL/CL junction is in neither entry
B5: humanized anti-ICAM-1 antibody H5L3 (VH5 + VL3), human IgG4/kappa (antibody, V domains shown)
VH: B2 VH with G24A, A68V, T74K, S77T
VL: B2 VL with Q42L, P45A
notes: as for B4
B6: humanized anti-ICAM-1 antibody H4L3 (VH4 + VL3), human IgG4/kappa (antibody, V domains shown)
VH: B2 VH with I20V, G24A, M48I, A68V, I70M, V72R, S77T, M81L
VL: B2 VL with Q42L, P45A
notes: as for B4

These molecules were tested against T1, ICAM-1 protein antigen (R&D System) (human, UniProt P05362 28-480) (assay: BLI (Octet), antibody coupled to AR2G amine-reactive sensor, ICAM-1 in solution at 5 concentrations).
T1 construct: The assay paragraphs say only 'ICAM-1 (R&D System)'; also called antigen ICAM-1; ICAM-1 antigen
Method: The Octet system (ForteBio) was used to compare the affinity of the H17L1 and H17L4 humanized antibodies to the antigen with the parent antibody. Each of three antibodies was attached to the amine reactive Bio-sensor AR2G (ForteBio), and 5 different concentrations of ICAM-1 antigen solution were added to induce antigen/antibody reactions to occur. Using the antigen/antibody reaction results, the binding constant (Kon) and the dissociation constant (Koff) were measured, and the affinity (KD) was calculated, and the results are shown in Table 10 and FIG. 8: […]

T1 sequence (P05362 28-480 limits assumed): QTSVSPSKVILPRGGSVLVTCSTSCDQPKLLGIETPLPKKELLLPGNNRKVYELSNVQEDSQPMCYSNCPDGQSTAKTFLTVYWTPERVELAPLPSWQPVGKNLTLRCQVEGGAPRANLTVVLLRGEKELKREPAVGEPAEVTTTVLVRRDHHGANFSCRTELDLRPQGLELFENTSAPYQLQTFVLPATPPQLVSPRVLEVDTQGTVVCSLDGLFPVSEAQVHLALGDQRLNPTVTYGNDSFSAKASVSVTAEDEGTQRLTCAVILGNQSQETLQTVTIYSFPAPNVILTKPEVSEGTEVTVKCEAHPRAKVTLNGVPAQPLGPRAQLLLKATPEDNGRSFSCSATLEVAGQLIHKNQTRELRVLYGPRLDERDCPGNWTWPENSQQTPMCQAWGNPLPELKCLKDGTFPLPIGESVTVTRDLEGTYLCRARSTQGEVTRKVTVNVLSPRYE

| Kd | koff | kon | Molecule |
| --- | --- | --- | --- |
| 10.3 nM | 0.00169 s⁻¹ | 165000 M⁻¹ s⁻¹ | B1 |
| 3.62 nM | 0.000929 s⁻¹ | 256000 M⁻¹ s⁻¹ | B2 |
| 3.43 nM | 0.000853 s⁻¹ | 249000 M⁻¹ s⁻¹ | B3 |

Each molecule was assayed against T1, ICAM-1 protein antigen (R&D System) (assay: ELISA, ICAM-1 coated 100 ng/well, anti-human Ig-HRP).
Method: The antigen ICAM-1 (ICAM-1; R&D System) was coated on a 96 well plate at 100 ng per well, followed by blocking. The amount of the primary antibody was serially diluted twice from 80 ng/ml and bound for 1 hour at 37° C. and a secondary antibody diluted 1:10000 with goat anti-Human Ig-HRP conjugate (Jackson ImmunoResearch) was combined at 37° C. for 30 minutes. Each step was washed three times and reacted with TMB (3,3′,5,5′-Tetramethylbenzidine). After the reaction was stopped by treatment with 1N H₂SO₄ solution in the same amount (100 ul) as the TMB solution, the OD value was measured at 450 nm.

| OD 450 nm at 2.5 ng/ml antibody | OD 450 nm at 5 ng/ml antibody | OD 450 nm at 10 ng/ml antibody | OD 450 nm at 20 ng/ml antibody | OD 450 nm at 40 ng/ml antibody | OD 450 nm at 80 ng/ml antibody | Molecule |
| --- | --- | --- | --- | --- | --- | --- |
| 0.118 OD (450 nm) | 0.182 OD (450 nm) | 0.298 OD (450 nm) | 0.473 OD (450 nm) | 0.724 OD (450 nm) | 1.14 OD (450 nm) | B1 |
| 0.135 OD (450 nm) | 0.201 OD (450 nm) | 0.344 OD (450 nm) | 0.567 OD (450 nm) | 0.848 OD (450 nm) | 1.2 OD (450 nm) | B4 |
| 0.128 OD (450 nm) | 0.208 OD (450 nm) | 0.35 OD (450 nm) | 0.592 OD (450 nm) | 0.862 OD (450 nm) | 1.25 OD (450 nm) | B5 |
| 0.136 OD (450 nm) | 0.236 OD (450 nm) | 0.349 OD (450 nm) | 0.637 OD (450 nm) | 0.983 OD (450 nm) | 1.24 OD (450 nm) | B2 |
| 0.115 OD (450 nm) | 0.189 OD (450 nm) | 0.305 OD (450 nm) | 0.52 OD (450 nm) | 0.832 OD (450 nm) | 1.23 OD (450 nm) | B6 |
| 0.119 OD (450 nm) | 0.186 OD (450 nm) | 0.297 OD (450 nm) | 0.506 OD (450 nm) | 0.802 OD (450 nm) | 1.11 OD (450 nm) | B3 |

What follows are molecules tested against ICAM-1 expressed on the surface of the prostate cancer cell line Du145 (human) (UniProt P05362) (assay: flow cytometry on Du145 cells expressing ICAM-1).
ICAM-1 expressed on the surface of the prostate cancer cell line Du145 (human), sequence (P05362 28-532): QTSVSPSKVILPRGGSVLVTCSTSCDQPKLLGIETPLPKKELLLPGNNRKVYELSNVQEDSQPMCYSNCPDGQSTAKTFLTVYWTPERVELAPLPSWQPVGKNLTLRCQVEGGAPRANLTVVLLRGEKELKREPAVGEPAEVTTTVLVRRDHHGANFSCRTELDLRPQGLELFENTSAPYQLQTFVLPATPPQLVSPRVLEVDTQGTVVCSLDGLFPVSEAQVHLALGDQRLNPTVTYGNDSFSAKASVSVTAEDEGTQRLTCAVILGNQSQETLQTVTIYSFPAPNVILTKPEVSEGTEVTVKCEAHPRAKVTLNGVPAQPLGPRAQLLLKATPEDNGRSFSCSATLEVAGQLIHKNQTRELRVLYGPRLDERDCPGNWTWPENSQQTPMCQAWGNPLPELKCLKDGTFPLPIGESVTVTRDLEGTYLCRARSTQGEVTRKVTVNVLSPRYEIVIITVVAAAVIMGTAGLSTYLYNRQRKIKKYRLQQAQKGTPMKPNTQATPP

| % Gated (marker M1) | Mean (marker All) | Mean (marker M1) | Molecule |
| --- | --- | --- | --- |
| 0.58% | 3.9 | 91 | Negative control |
